Measured values published in patent publication US20090318342A1, “Compounds” (IMPERIAL INNOVATIONS LIMITED, published 2009).

Columns and labels:
ADAMTS-5 = target: T1, ADAMTS-5 (Homo sapiens (Human), UniProt Q9UNA0); experiment: GST-IGD-FLAG substrate assay, Ki(app)
T1 sequence: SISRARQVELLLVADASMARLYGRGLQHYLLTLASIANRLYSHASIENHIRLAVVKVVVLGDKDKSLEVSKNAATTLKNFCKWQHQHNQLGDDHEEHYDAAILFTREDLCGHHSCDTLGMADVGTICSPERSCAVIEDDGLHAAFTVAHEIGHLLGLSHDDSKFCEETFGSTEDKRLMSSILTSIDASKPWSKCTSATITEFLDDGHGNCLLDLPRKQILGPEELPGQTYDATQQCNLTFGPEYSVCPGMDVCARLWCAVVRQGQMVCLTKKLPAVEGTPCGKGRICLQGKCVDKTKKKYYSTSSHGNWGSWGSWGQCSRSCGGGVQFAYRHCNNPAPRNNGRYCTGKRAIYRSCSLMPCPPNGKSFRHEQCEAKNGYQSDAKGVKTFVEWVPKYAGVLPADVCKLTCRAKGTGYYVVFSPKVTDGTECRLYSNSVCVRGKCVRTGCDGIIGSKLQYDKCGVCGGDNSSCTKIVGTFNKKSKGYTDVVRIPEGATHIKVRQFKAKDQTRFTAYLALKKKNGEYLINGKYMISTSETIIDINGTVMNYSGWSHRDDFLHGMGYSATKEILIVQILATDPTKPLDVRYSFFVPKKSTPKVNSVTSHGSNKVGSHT
Protocol: (§1) Aggrecanase assays were carried out in 50 mM Tris HCl pH 7.5, 150 mM NaCl, 10 mM CaCl₂, 0.02% NaN₃, 0.05% Brij-35 at 37° C. When N-TIMP-3 was used, the inhibitor was preincubated with the enzyme for 1 hour. Reaction volumes were a total of 10 μl, consisting of 5 μl of GST-IGD-FLAG substrate (34 μM), and 5 μl of ADAMTS-4 or ADAMTS-5 (2 nM) with or without inhibitor. Enzyme amounts and incubation times were as indicated. Enzyme reactions were stopped at appropriate time points with the addition of 10 μl 2×SDS-PAGE samples loading buffer containing 20 mM EDTA. Reactions were then applied to a 10% SDS-PAGE analysis. Proteins were stained using Coomassie Brilliant Blue R-250. The stained gels were then scanned using a scanning densitometer (Biorad GS-710, Hemel Hempstead, UK) and the band intensity of the product (17 kDa) quantified using the 1D Phoretix quantification software (Nonlinear Dynamics, Newcastle upon Tyne, UK). Background subtraction was done using the rolling ball method, and band intensity expressed as pixel volumes.

[1] = target: T2, ADAMTS-4 (as used in Example 4; form not stated) (Homo sapiens (Human), UniProt O75173); experiment: GST-IGD-FLAG substrate assay, Ki(app)
T2 sequence: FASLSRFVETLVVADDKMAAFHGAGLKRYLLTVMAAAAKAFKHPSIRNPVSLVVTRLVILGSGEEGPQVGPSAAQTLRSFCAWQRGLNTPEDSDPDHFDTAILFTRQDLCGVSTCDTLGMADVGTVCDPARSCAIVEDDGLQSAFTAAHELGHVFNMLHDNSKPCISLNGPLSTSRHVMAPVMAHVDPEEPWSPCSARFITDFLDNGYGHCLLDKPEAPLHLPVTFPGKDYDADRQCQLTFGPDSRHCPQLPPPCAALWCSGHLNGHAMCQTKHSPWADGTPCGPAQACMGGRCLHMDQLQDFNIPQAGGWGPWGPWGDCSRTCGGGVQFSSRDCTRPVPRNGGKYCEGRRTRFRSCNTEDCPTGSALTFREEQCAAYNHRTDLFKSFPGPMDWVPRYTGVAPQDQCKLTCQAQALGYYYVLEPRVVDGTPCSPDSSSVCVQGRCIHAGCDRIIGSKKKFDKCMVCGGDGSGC
Protocol: as §1

gelatinase A (MMP-2) = gelatinase A (MMP-2) (Homo sapiens (Human), UniProt P08253); experiment: enzyme inhibition kinetics, Ki(app), as in Example 1
[2] = target: full-length collagenase 1 (MMP-1) (Homo sapiens (Human), UniProt P03956); experiment: as above

Ki (ADAMTS-5): 1.4 nM
Ki [1]: 67 nM
Ki (gelatinase A (MMP-2)): > 250 nM
Ki [2]: > 500 nM
B1: (-2A)N-TIMP-3 (other)
chain: AACTCSPSHPQDAFCNSDIVIRAKVVGKKLVKEGPFGTLVYTIKQMKMYRGFTKMPHVQYIHTEASESLCGLKLEVNKYQYLLTGRVYDGKMYTGLCNFVERWDQLTLSQRKGLNYRYHLGCN
